T1: human Tyro3 (rhTyro3/Dtk-Fc chimera) (Homo sapiens, UniProt Q06418)
T1 construct: Soluble recombinant antigens corresponding to the extracellular domains of members of the human TAM receptor family; purchased R&D Systems 859-DK
T1 sequence (Q06418 41-429 limits assumed): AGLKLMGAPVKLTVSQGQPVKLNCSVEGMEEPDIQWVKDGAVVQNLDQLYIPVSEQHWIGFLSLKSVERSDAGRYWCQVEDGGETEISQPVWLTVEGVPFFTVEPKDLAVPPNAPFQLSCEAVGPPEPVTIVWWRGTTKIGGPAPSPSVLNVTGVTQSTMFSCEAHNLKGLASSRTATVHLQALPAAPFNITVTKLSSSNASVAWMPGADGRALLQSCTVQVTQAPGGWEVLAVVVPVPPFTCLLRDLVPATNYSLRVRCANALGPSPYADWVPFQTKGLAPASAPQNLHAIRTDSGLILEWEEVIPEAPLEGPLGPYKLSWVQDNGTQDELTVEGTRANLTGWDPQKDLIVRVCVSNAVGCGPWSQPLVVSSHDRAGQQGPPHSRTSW


Legend:
[1] = molecular target: T1, human Tyro3 (rhTyro3/Dtk-Fc chimera); assay: Biacore binding analysis on immobilized human Tyro3; conditions: 10 μg/mL, 25° C.
Description: All binding experiments were performed using Biacore 3000 instrument (GE Healthcare) at 25° C. Soluble recombinant antigens corresponding to the extracellular domains of members of the human TAM receptor family, Axl (rhAxl-Fc chimera; R&D Systems, Cat. no. 154-AL), Mer (rhMer-Fc chimera; R&D Systems, Cat. no. 891-MR) and Tyro3 (rhTyro3/Dtk-Fc chimera; R&D Systems, Cat. no. 859-DK) were immobilized on the surface of CM5 sensor chip using amine coupling at the surface density of 393.0, 303.6 and 364.0 resonance units (RU), respectively. The Biacore run was performed in an automatic mode using Binding analysis wizard. Samples containing either MAb 10C9 or MAb 10G5 at concentration 10 μg/mL in HBS-EP buffer (GE Healthcare) were injected over the surfaces with immobilized antigens at flow rate of 30 μL/min for 3 min (association) followed by 5 min dissociation.
The binding experiments were performed using Biacore 3000 instrument (GE Healthcare) at 25° C. The soluble recombinant antigens corresponding to human Axl (rhAxl-Fc chimera; R&D Systems, Cat. no. 154-AL), mouse Axl (rmAxl-Fc chimera; R&D Systems, R&D Systems; Cat. no. 854-AX) and human Tyro3 (rhTyro3/Dtk-Fc chimera; R&D Systems, Cat. no. 859-DK) were immobilized on the surface of CM5 sensor chip using amine coupling at the surface density of 1,308.0, 2,115.9 and 1,429.0 RU, respectively. The Biacore runs were performed in an automatic mode using Binding analysis wizard.
The sample containing either MAb 10C9, MAb 10G5 or recombinant mouse (rm) Axl-ligand Gas6 (R&D Systems, Cat. no. 986-GS/CF) at concentration 10 μg/mL in HBS-EP buffer (GE Healthcare) was injected over the surfaces with immobilized antigens at flow rate of 30 μL/min for 3 min (association) followed by 5 min dissociation.

[2] = test system: MDA-MB-231; assay: Growth of MDA-MB-231 cells in three-dimensional (3D) organotypic model; type: cell-based, human; conditions: for growth and tumour mass development in extracellular matrix: MDA-MB-231, 50-100 μg/mL, day 6, versus control irrelevant IgG
Description: A highly aggressive triple-negative human breast cancer cell line MDA-MB-231 (ATCC® HTB-26™) was cultured according to recommended conditions in Dulbecco's Modified Eagle's Medium/Nutrient Mixture F-12 Ham medium supplemented with 10% foetal bovine serum (FBS), glutamine and penicillin and streptomycin. The cells were pre-treated in suspension for at least 1 hour at 37° C., to ensure proper binding of antibodies on the cell surface before they were placed in extracellular matrix. The cells cultures were observed every day and fresh treatments were done every other day. The antibodies were used at concentrations 50-100 μg/mL. Imaging of coverslip 3D assay (35 mm dish) was done on a NIKON light microscopy using both Phase contrast and Hoffman optics. Already at day 3, difference in growth of cells treated with either MAb 10C9 or MAb10G5 and cells treated with a control irrelevant IgG was observed.

[3] = test system: Mv4-11 tumours; assay: Mv4-11 AML xenograft in nude mice; type: in vivo, mouse
Description: (§1) Inhibition of Mv4-11 xenograft tumour growth by the chimeric antibody 10G5. The antibody was administrated intraperitoneally at 30 mg/kg, twice a week, starting when the mean tumour size reached 200 mm^3. Tumour growth curves for the groups treated with either vehicle (sterile PBS) or chimeric 10G5 are shown. Error bars represent standard error of the mean (SEM). Statistical analysis was performed using two-way ANOVA. *, P<0.05; **, P<0.01; ****, P<0.0001.
To evaluate the anti-tumour activity of anti-Axl chimeric antibodies in a model of haematological cancer, we used a mouse xenograft model of human acute myeloid leukaemia (AML). The human AML Mv4-11 cells (ATCC # CRL-9591) cells were propagated in suspension in IMDM medium supplemented with 10% FBS, 2 mM L-Glutamine, 100 U/ml penicillin and 100 μg/ml streptomycin. Nude mice were implanted s.c. into the flank with 5×10^6 Mv4-11 cells resuspended in the mixture of serum-free IMDM medium and Matrigel (1:1). When the tumour size reached 200 mm^3 (Day 0 in FIG. 15), the animals were randomized and treated with either vehicle (sterile PBS) or anti-Axl chimeric antibody 10G5 at 30 mg/kg, by i.p. injections twice weekly for 4 weeks.

[4] = test system: A549 tumours; assay: A549 NSCLC xenograft in nude mice; type: in vivo, mouse
Description: as §1, with “A549” for “Mv4-11”, “by” for “by the”, “20” for “30”, “100” for “200”, “ANOVA.” for “ANOVA. *, P<0.05;”, “P<0.01.” for “P<0.01; ****, P<0.0001.”
To evaluate the anti-tumour activity of anti-Axl chimeric antibodies in vivo, we used a mouse xenograft model of human non-small cell lung cancer (NSCLC). The human NSCLC A549 cells (ATCC #CCL-185) A549 cells were propagated in vitro as a monolayer culture in DMEM medium supplemented with 10% FBS, 2 mM L-Glutamine, 100 U/ml penicillin and 100 μg/ml streptomycin, 0.01M HEPES buffer, 0.45% D-(+)-glucose, 1 mM sodium pyruvate. Nude mice were implanted subcutaneously (s.c.) into the flank with 5×10^6 A549 cells resuspended in serum-free medium/Matrigel (1:1). When the tumour size reached 100 mm^3 (Day 0 in FIG. 14), the animals were randomized and treated with either vehicle (sterile PBS) or anti-Axl chimeric antibody 10G5 at 20 mg/kg, by intraperitoneal (i.p.) injections twice weekly for 4 weeks.

binding to human Tyro3 [1] | binding to human Tyro3 ([1]; listed as 1009) | Molecule | growth and tumour mass development in extracellular matrix [2] | viability of treated cells (nuclei staining) ([2]; MDA-MB-231 3D culture) | growth of Mv4-11 tumours compared with the control ([3]; 30 mg/kg i.p. twice weekly for 4 weeks, P<0.0001, two-way ANOVA) | inhibition of tumour growth ([3]; 30 mg/kg i.p. twice weekly, after three weeks of treatment, versus vehicle (PBS)) | growth of A549 tumours compared with the control ([4]; 20 mg/kg i.p. twice weekly for 4 weeks, P<0.01, two-way ANOVA) | inhibition of tumour growth ([4]; 20 mg/kg i.p. twice weekly, after four weeks of treatment, versus vehicle (PBS))
no binding | no significant binding | 10C9: mouse anti-Axl monoclonal antibody from hybridoma UT-10C9-B9, IgG2b; VH SEQ ID NO: 3, VL SEQ ID NO: 4 (antibody, listed as Mus musculus, V domains shown) VH: QVQLQQPGPELVKPGASVKISCKTSDYNFTRYYIHWVKQRPGQGLEWIGWIYPGTGDSKYNEKFKGRATLTADTSSSTAYMQLSSQTSEDSAVYFCARNGNYWYFDVWGAGTAVTVSS VL: DIVMTQAAPSGPVTPGESVSISCRSSKSLLHSNGNTYLYWFLQRPGQSPQLLIYRMSNLASGVPDRFSGSGSGTAFTLRISRVEAEDVGIYYCMQHREYPFTFGGGTKLEIK | significantly inhibited growth and tumour mass development |  |  |  |  | 
no significant binding |  | 10G5: mouse anti-Axl monoclonal antibody from hybridoma WR-10G5-E5, IgG1; VH SEQ ID NO: 21, VL SEQ ID NO: 22 (antibody, listed as Mus musculus, V domains shown) VH: QVQLQQSGAELVRPGASVKLSCKASGYSFTDFYINWVRQRPGQGLEWIARIFPGGDNTYYNEKFKGKATLTAEESSSTAYIQLSSLTSEDSAVYFCARRGLYYAMDYWGQGISVTVSS VL: DVLMTQTPLSLPVSLGDQASISCRSSQSLVHSNGIPYLHWYLQKPGQSPKLLIYRVSNRFSGVPDRFSGSGSGTDFTLKISRVEAEDLGVYFCSQGTHVPPTFGGGTKLEIK | significantly inhibited growth and tumour mass development | still viable |  |  |  | 
 |  | c10G5: chimeric (mouse variable/human constant) IgG1 variant of antibody 10G5 (antibody, left off: a dimerising Fc or GST, chimeric (mouse variable/human constant) IgG1 variant of antibody 10G5) heavy: QVQLQQSGAELVRPGASVKLSCKASGYSFTDFYINWVRQRPGQGLEWIARIFPGGDNTYYNEKFKGKATLTAEESSSTAYIQLSSLTSEDSAVYFCARRGLYYAMDYWGQGISVTVSS light: DVLMTQTPLSLPVSLGDQASISCRSSQSLVHSNGIPYLHWYLQKPGQSPKLLIYRVSNRFSGVPDRFSGSGSGTDFTLKISRVEAEDLGVYFCSQGTHVPPTFGGGTKLEIK |  |  | extremely significantly attenuated growth of Mv4-11 tumours | around 75% | significantly attenuated growth of A549 tumours | around 40%

From patent US10208121B2, “Anti-Axl antagonistic antibodies” (BERGEN TEKNOLOGIOVERFORING AS, priority 2014, dated 2019)
